Assay: soluble on expression in E. coli; label from the status in PepcDB or PDB records

Sequence	soluble on expression in E. coli
MAHHHHHHMEEAKIEAALHICNLLPAHVFEETIKLLSKVDQNLTNNILINKEGPIKIKFDSQQNKHYLGNMFNKEKDSYRSPYSNRYYPEHYPNGYIPSESLRMLEMLYNEMYDRYRKAYYIGGLSSVYLWPNPIEEGFVACFLIKKKENYDPCTSLTWEGTHLIQVSITHARVYYQISTTVNFFIKKKNEMTLSASINKALETPKKVSNVNLVKDKYFHMHNMGKMIEGIENSLRKSIEYIYLPKMNDILNSIRMDDSFASAWHNADRKAAQNLRTISSNIALSRGSVQDELRLKLKGRSFDAGAEYSLRT	not soluble
MAHHHHHHMEFNRSQAAGNGKYVELFAQSYSGPVPKPLPPCTEPTPDEQYRQLMEEKKNEIGEREQRHAENTAGASGSNVDSSNVVGLFSNAATKLRNVAQQVTLKIERASTEVSSATGAAVRQVERQLNVDRFLSNFPELGAMGEILLADYACTAINGGQRVSGHMHITKNYLCFSAPGSSVINQLATAVLKESGVGSDNNPVLGIRQIIPLTEIACILLSVALETVDHRPPFFLPLPASYVRPTGLQIYTTKQQLFQFLAFESIAAKAGSVFTDAVKGLPIQRAYNYLDHAWRASTSVPLPGVNYAS	not soluble
MAHHHHHHMEGDISSSAFVCGFTAHRAHPLSPISDIRDLCVPRTSTPSASSHALAQALSFPRRPLPHRLLASCLLITTTNRFQAHCSRSAATQPPPPLPCGTTTEREYGWDGLAVFLSADSRVFRSPFSTIVSRFSPFVAAMSDRDVPASMTRTCAPPKAHFLFCSTDARNAAPASNGDVAKLPAPKKPISAPLTPFQSPVDTHRDRHSSRHASPPRQLGRPLPPTQPSFSDVAKRMGSFNDMCEANSLLSSHVRLGEMSTLGISASTSTIPAGSSGSTTSLHWLRIAEDRVMPHPSSTKPAPAALQRNAEYVLERWVEQKVHRTAAMDDAMMKVAAAFDELYA	soluble
MAHHHHHHMEGKKCFYITEKGKKQNFRNIKLITFDLDHTIWNIDGLLNYADKECYEYMKKNYRRLYDYLQEEYQLSITNLVKQLLENKIEDNNDGVQTLTNMRIDALKFLAKKTNYDEGKFVSEIQELWKEKKNDVHLFISPGTLEYLRELKRRGYTLGAITNGDSDVNGIKFLNEIFTFVIRSMDYNHSKPSVEIFNIAENILKKKNFHFEIHQWMHVGDDVYTDIMGAKNKNINCAWITMFRDGSEVPPNDWYPYLKLKLEENGDSHLSQYDPFADGLFSRFRRRDVVLPYEYIDIEIRHCRDLDAILA	soluble
MAHHHHHHMEKQCPVCYFNLPDPESAIAPYDTELNYFMWGPGFEWQPEPEVKNILVEEENFEESEQSEESVAGLEELDEKVDRSEAKTMFNEKSSNGKVSVEDASQNARKLGLAPSSLDEKKVRDLYGDSLTYEQYLEYLAMCVHDRDNMEELIKMFSHFDNNASGFLTKNQMRNILTTWGDALTEQEANDALNAFSSEDRIDYKLFCEDILQ	not soluble
MAHHHHHHMEKTIITLLPVVEKAPKENMERVLDVFRHYLKRYGADHYIYNAVMQAAAFAKNYEQAEQLFKEMETLGLEPNAQSYVNMMLAAKLCGLPPEKSEAYFKRAVKDGAMQSVMRMDTEFRMWMDQLDRLGSFTASSGYLSVNEEGAKPMPRDMWAIWGWHRSESKFISRRDLIMQQVRARVHSGKELVGTVYTKTRRQPWAKFNGMLRHDYNGPSYRAPTIFPDAPEYTNEAGHKAF	not soluble
MAHHHHHHMESISRTYENIKNDKNNLSNAENENNGNFKAPPNGTVCCPEDLKMYSTIQLNQEIEISKNPFPLHEINKKNDIPLCAQEFSDLTDPLYIKKICLEKVPEWNHFTEDNLRVKQILSGLTNQLFEVGLKEETANNYNSIRTRVLFRIYGKHVDELYNTISEFEVYKTMSKYKIAPQLLNTFNGGRIEEWLYGDPLRIDDLKNPTILIGIANVLGKFHTLSRKRHLPEHWDRTPCIFKMMEKWKNQLFKYKNIEKYNCDIHKYIKESDKFIKFMKVYSKSDNLANTIVFCHNDLQENNIINTNKCLRLIDFEYSGFNFLATDIANFFIETSIDYSVSSYPFFEIDKKKYISYENRKLFITAYLSNYLDKSLVVPTPKLIDEILEAVEVQALGAHLLWGFWSIIRGYQTKSYNEFDFFLYAEQRLKMYDDQKEYLISNNIIKGYD	soluble
MAHHHHHHMESKVPLFLYFMVTNHPEVKQYTELLCHQVDQANRRLKDENFGDVYQEFGKDAGLAIKLGMVDCLQEPGLMAKFHIDPHMFPLIYFVRNKVFCDKMVGVVTESHVKEAVEAFIDDAKLESKSESEGASLFQKVRRQDDDDENAMTLIAAAHGKMQAGDPAKGKQLFEKALRMSMEDMEVVKKRYGVPNKKMTPELWAKLKREPCYNSAPEALCGLAMCAMASKQRDEAFRLAARVREEFPFAPQDMRGVAEAVVRIELIQVVDYDPDTDNYMRLLKFDELVSEPAQFYKHHLKRAVAFYVEGVAGQAIEECIRLIRAEPKLLSALKEGGIVPNDLRLGPTAVTPARQVIRAIFEALGPTNERVEKGRKLLQLYL	not soluble
MAHHHHHHMFAFLNVAFMAAIRRKLKELKPPARRQSHRCAPEVYSQEGPTRHYFLPSVERIDKKTCISHRLLYIPEVENFPLVDGFFFVKSNPMTLVGLRMTTAGEHHTAASTVRQFTECLAAYFNGWEELSREMSWEMIYVQHADSTPMNDWQRCDVDNSNNLTEEGREIAAFWNEKVRQYQVSI	not soluble
MAHHHHHHMFPGEQDITGSQLAEYVREQVQASANLVVYVEDTHCDVDTIGLRRLHATIGGTAVFSGYDLYRRSKYEKVEQGLDELWTSNVVLEASAIGSLSALCDNVRMVRRHEGCTIALAPQSLMHNVAFAVHLAVGVGARFLCVGGLMDVVQCEVVSQYLYVQDELEQSRLLLEEAPKPPCAVLPDAPTDTVPEIKRRLDKKKRKK	not soluble
MAHHHHHHMGAEHSTGMTKVLMPQFSTKRQTGPFLSPVERVTASGQSVVIECGDGVSRVDDGTAVVELFALDSKATEEDAMVEAFGEFAITKDDLIGRTRSSLKRGRVEEDEDLPCYFLAPRRRSCSVGGHNSADADSVLASPSRWGAVETDADGAMWRLLQEYDELLCVEAIGDATEDLYCYPDHRKDDEFDSNAEDFSGNDYPDDADERSGESAERAEEEASGFSTERRGGRVASHSTYGMFCEEGYSERSLSSVWNSDG	soluble
MAHHHHHHMGGYFSKDLEECLRNEKRNLNRSIRELEREIFKLTNEQSKIEKNIKINAKRNGDTSTVRTLARDYISIKKTIAKYNKLKSHLFSMKVKLQSVKSSEQLGRSLTEINRVIKRVNGYIKLTSLNKSINDFHKENNEVSLKEDMLDDLFEAFDYDSQMVAEEEELVTKVLEGMGIQMNAKLEDIPSPGELPKTQVDHLGVSDLEARINNLRLGKS	soluble
MAHHHHHHMGIGYSQPLTVDTAGPPSSFSCARTVAHVAALTIQRSTQFLGGSTPPPSQSHTHAHHRKKHSHVRSEIACWASATLPSHSNLQRLRDPTTAVNRHSKRCKGEMVVRRMPSDGAGSHATVSENRAPSKRKLRGGFLFASSKWREHLTCNNQNGDTEDHWGLGEGEVRFHSWERILALSVCPLFLLPDGRDSGVTALCGHTEGHEGKERTAVGIMLRTVVKMGDESELTKGGSRGN	soluble
MAHHHHHHMGIVRSRLHKRKITGGKTKIHRKRMKAELGRLPANTRLGARRVSPVRARGGNFKIRALRLDTGNFAWASEAIAHRVRLLDVVYNATSNELVRTKTLVKNCIVAVDAAPFKRWYAKHYGIDLDADKKSTKAAVAAEKKGRKSAHAAADKYDVNKASPKLQREWTRRRRNHRVEKAIADQLREGRVLARITSRPGQSGRADGILLEGAELQFYLKRLEKKKK	soluble
MAHHHHHHMGKLSKDRRDIYYRKAKESGYRARSSFKLIQINEKFGILKLFKPDIYNCNNEKDLINIYNEHYCYNIVDLCAAPGSWSQVLKNICLYNYYQILYMINKYNNNENIKNIQHEEFLNKFSLYINYNEELENKIKNLKIKCSNIKEPNIVAVDLQEIGNMNYVKIIQGDITKMSTIDKILKCMNNKINSDEENVNVFYNMEQQKKENNFSYAHTVVSDGAPDITGMNDIDEFIQSQLILSSLKVCCSVLKVGGNFISKIFRGEHTGLLILHLNKFFQRVYICKPQSSRNKSLESFLVCLNFSLPRSNIISMNNHNAENKINDKYLSEEQMRKFHAQLITYKDKDDQESEEKKENYNSHDNIDYNLCHTTKHNKNISDEIETKEVSSPYEHNNIVENNVTPNSDMLKNINKIINEYDNDKNNLDIFNFYCSDSDEEIKYFNSEDEEVVNNYISSESFMSNKLFSFIATDNYYDSDKSYLLPENYVRHEPQLMPLKPPYMLSLQKKRQEVKK	not soluble
MAHHHHHHMGTLEAQTQGPGSMLYIIGLGLYDEKDITVRGLEAVKSCDLVFLEHYTAILQCDVAKLEEFYGKKVIIGDRDLVETEADQILEPAKTKNVALLVVGDVYGATTHSDIFVRCQKMGIEVKVIHNASIMNAIGCSGLQLYRFGQTVSVCFWSEHWRPSSYYPKIKINRDNNMHTLVLLDIKVKERSEESIIKGRDIFEPPRYMTINQCIEQLLEVEKEQHLGVYDEDTMVVGMARVACADQKIVYGKMKDLLHYDFGAPMHCLLIPAPQVDDPELDQLEYFKYKPE	soluble
MAHHHHHHMGTLEAQTQGPGSMSDIPSDLHYTAEHEWIRRSGDDTVRVGITDYAQSALGDVVFVQLPVIGTAVTAGETFGEVESTKSVSDLYAPISGKVSEVNSDLDGTPQLVNSDPYGAGWLLDIQVDSSDVAALESALTTLLDAEAYRGTLTE	soluble
MAHHHHHHMGTLEAQTQGPGSMTYETILVERDQRVGIITLNRPQALNALNSQVMNEVTSAATELDDDPDIGAIIITGSAKAFAAGADIKEMADLTFADAFTADFFATWGKLAAVRTPTIAAVAGYALGGGCELAMMCDVLIAADTAKFGQPEIKLGVLPGMGGSQRLTRAIGKAKAMDLILTGRTMDAAEAERSGLVSRVVPADDLLTEARATATTISQMSASAARMAKEAVNRAFESSLSEGLLYERRLFHSAFATEDQSEGMAAFIEKRAPQFTHR	soluble
MAHHHHHHMHLLHDFKNIYCLLPSDYKNFLQKIRTLPCSVNKNMQGEKEIYILKKYMKMLNYEFITFIHGPYVLHICDPFYKIYLEWENGWKLYPLYQQNAERHFRENKITHLRKEGFSEILICHDAFANCPSDEEKMNYLSSVLQRTKFSKCSSIICGPAAIAPPPVVSPDIYL	not soluble
MAHHHHHHMHMNNYHYNNYNVNFNPYNCGVVQESEKKNVGNVNNKVVLQKNYSNEYEMKYKEENKNNKINYLENLLNEPTAKEKKIKEEKTNILSIIEAPTVIEEMRIKKFQKKDDSVKIICPYLTKKVCQKHNKECNKVHFKKIISEHTDVSLGDCSYLDTCRHIETCKFVHYAVDKDDQQMNMNTQENLSQSKLSFSSNIKENVYGPQWIRCDLRNFDLSIFNKYVSVVMADPPWDIHMDLPYGTMTDNEMKLLPVQLIQDEGMIFLWVTGRAMELARECLQIWGYKRVEEILWVKTNHLQRIIRTGRTGHWLNHSKEHCLVGIKGNPIINRNIDCNVIVSEVRETSRKPDEIYSLIERLCPQNLKIELFGRPHNCRSNWITLGNQLNGVVLHHPQIKERYNKVATQFNLPLCEK	not soluble
MAHHHHHHMHTDDKQAQRYPRTSDAARVHSTLRVGQNTSDKVPYGRLSSQSGPGTPRGDLFPPSNGLSKVEGEETPAAGAWQYPSEPMATPNTRSVQLNGALPVKNEEGETKCSGDAIREEGTKDGGDGVIIGIDAAVEAGVLVANEESGKEDENRESNVNSTPCASGTNETIATATPTLSNATAASVVLTPAVPASTGLRASRRLLDFTGSTNVSNGPRAASRLFDVKPVGGGAQAASQGVGFLRLSKTVPSAASQAVSARMRTSRKNGPTLSATSRGHSSTAHENLPCRNDYTSLRLKEQRRRELYAWNEELRRQDKSDMSADAV	not soluble

— the DeepSol protein solubility set
